Here are results for one protein from patent US20160251386A1 (published 2016).

The data set deals with the molecule itself. Description: SDS gel and Western blot, self-association (dimer band). For orientation: A western blot detects proteins with antibodies after separation by electrophoresis.

B1: secreted form of the factor with tags (94 AA+tags) expressed in E. coli (other)
chain: MEPLAVVDLRPQSSVKVEVHFQDKVEEMSIRLDQTVAELKKHLKTVVQLSTSNMLLFYLDQEAPFGPEEMKYSSRALHSYGIRDGDKIYVEPRMKDDDDKKGEFEAYVEQKLISEEDLNSAVDHHHHHH
notes: Expressed from pTrcHis2-TOPO in E. coli, purified on nickel columns; carries no lipid cofactor; runs at 16 kD with a 32 kD dimer band; also called free factor made in E. coli; E. coli expressed secreted form of the factor
As for B1, the binding result is on record as “binds”.
